The supplement of paper PMC9732359
± gives the uncertainty stated by the source.

Assay: protein stability index of a GFP-peptide fusion (yeast GPS) (PSI 1-4); higher = more stable; sorted into four equal gates, so the index is relative within each strain
In short: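 The protein stability index combines read frequencies across sorting gates, each weighted by its gate number and then summed. To obtain those frequencies, a pooled yeast library of GFP fusions to tiled 17-residue yeast protein peptides, on a plasmid also expressing Cherry, was grown to mid-log phase in leucine-free medium. The cells were sorted into four equal gates by GFP/Cherry ratio before plasmid amplification by PCR and Illumina sequencing.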

Sequence: KRRKLDLNNAVQKRDEV [SMC4]
- protein stability index (doa10∆): 3.41 ± 0.26
- protein stability index (pdr5∆): 2.89 ± 0.12
- protein stability index (san1∆): 2.96 ± 0.068
- protein stability index (ubr1∆): 2.96 ± 0.079

Sequence: TSLFGSSSAQQTKSNGT [YJL041W/NSP1]
- protein stability index (doa10∆): 3.23 ± 0.11
- protein stability index (pdr5∆): 3.4 ± 0.098
- protein stability index (san1∆): 2.71 ± 0.13
- protein stability index (ubr1∆): 3.19 ± 0.073

Sequence: GAGSIFTSHTRLRQGAA [RPL2A]
- protein stability index (doa10∆): 3.05 ± 0.1
- protein stability index (pdr5∆): 3.2 ± 0.088
- protein stability index (san1∆): 3.17 ± 0.049
- protein stability index (ubr1∆): 3.25 ± 0.072

Sequence: RLAKKPSMKKIKIEPSA [SIR3]
- protein stability index (doa10∆): 2.48 ± 0.094
- protein stability index (pdr5∆): 3.06 ± 0.099
- protein stability index (san1∆): 2.76 ± 0.071
- protein stability index (ubr1∆): 2.88 ± 0.065

Sequence: LSGNSVEDVSQNAADLQ [RPL9A]
- protein stability index (doa10∆): 3.31 ± 0.15
- protein stability index (pdr5∆): 3.55 ± 0.15
- protein stability index (san1∆): 2.78 ± 0.13
- protein stability index (ubr1∆): 3.31 ± 0.058

Sequence: VVKGLPDISRAVINIRD [RPO31]
- protein stability index (doa10∆): 2.83 ± 0.083
- protein stability index (pdr5∆): 2.23 ± 0.097
- protein stability index (san1∆): 2.6 ± 0.23
- protein stability index (ubr1∆): 2.47 ± 0.083

Sequence: PTPAIIKPKPLWSGKQI [RPO21]
- protein stability index (doa10∆): 2 ± 0.11
- protein stability index (pdr5∆): 2.5 ± 0.093
- protein stability index (san1∆): 2.48 ± 0.08
- protein stability index (ubr1∆): 2.54 ± 0.098

Sequence: TAAETFKLFNKYRPETA [RPL8A]
- protein stability index (doa10∆): 2.8 ± 0.065
- protein stability index (pdr5∆): 3 ± 0.059
- protein stability index (san1∆): 2.64 ± 0.072
- protein stability index (ubr1∆): 2.8 ± 0.051

Sequence: AGYTDNVIRVWQVMTAN [ASC1]
- protein stability index (doa10∆): 1.56 ± 0.14
- protein stability index (pdr5∆): 1.35 ± 0.08
- protein stability index (san1∆): 1.5 ± 0.21
- protein stability index (ubr1∆): 1.3 ± 0.075

Sequence: SWSNGKITSPIRSVALN [RRP42]
- protein stability index (doa10∆): 2.62 ± 0.11
- protein stability index (pdr5∆): 2.62 ± 0.089
- protein stability index (san1∆): 2.66 ± 0.091
- protein stability index (ubr1∆): 2.81 ± 0.073

Sequence: RGLTPQEFFFHAMGGRE [RPO21]
- protein stability index (doa10∆): 2.32 ± 0.05
- protein stability index (pdr5∆): 2.42 ± 0.054
- protein stability index (san1∆): 2.2 ± 0.074
- protein stability index (ubr1∆): 2.35 ± 0.046

Sequence: IITNINAIFLSSEQDYS [YCG1]
- protein stability index (doa10∆): 2.54 ± 0.078
- protein stability index (pdr5∆): 2.58 ± 0.13
- protein stability index (san1∆): 1.58 ± 0.22
- protein stability index (ubr1∆): 2.89 ± 0.098

Sequence: AQDSLTVTIASSLNLED [RPB8]
- protein stability index (doa10∆): 1.65 ± 0.048
- protein stability index (pdr5∆): 1.92 ± 0.044
- protein stability index (san1∆): 2.23 ± 0.079
- protein stability index (ubr1∆): 1.89 ± 0.045

Sequence: KESDLLEETRTTIGDTT [BRN1]
- protein stability index (doa10∆): 2.47 ± 0.051
- protein stability index (pdr5∆): 3.18 ± 0.064
- protein stability index (san1∆): 2.99 ± 0.053
- protein stability index (ubr1∆): 3.19 ± 0.055

Sequence: IEGVVILKKNPDYREEE [RPN1]
- protein stability index (doa10∆): 3.06 ± 0.08
- protein stability index (pdr5∆): 3.09 ± 0.09
- protein stability index (san1∆): 3.1 ± 0.075
- protein stability index (ubr1∆): 3.1 ± 0.062

Sequence: EEISRLQRDLIQTKEQV [YIL149C/MLP2]
- protein stability index (doa10∆): 2.77 ± 0.095
- protein stability index (pdr5∆): 2.98 ± 0.15
- protein stability index (san1∆): 3.13 ± 0.14
- protein stability index (ubr1∆): 3.11 ± 0.082

Sequence: KTYGISDDIISQVDPIT [FAS2]
- protein stability index (doa10∆): 1.71 ± 0.16
- protein stability index (pdr5∆): 1.1 ± 0.12
- protein stability index (ubr1∆): 1.06 ± 0.13

Sequence: CNGSALVEARSLGHQTS [MTR3]
- protein stability index (doa10∆): 3.52 ± 0.17
- protein stability index (san1∆): 3.1 ± 0.22

Sequence: QFVETIVSKSIEMYVQE [RPN2]
- protein stability index (doa10∆): 1.51 ± 0.13
- protein stability index (san1∆): 1.05 ± 0.11
- protein stability index (ubr1∆): 1.15 ± 0.2

Sequence: LGLKLACLGNDGILRLY [YGL100W/SEH1]
- protein stability index (doa10∆): 1.78 ± 0.056
- protein stability index (pdr5∆): 1.75 ± 0.05
- protein stability index (san1∆): 1.86 ± 0.057
- protein stability index (ubr1∆): 1.72 ± 0.034

Sequence: REHSLQLFRTNKVQIMI [PRP28]
- protein stability index (doa10∆): 1.61 ± 0.063
- protein stability index (pdr5∆): 1.75 ± 0.065
- protein stability index (san1∆): 1.61 ± 0.084
- protein stability index (ubr1∆): 2.07 ± 0.037

Sequence: ASAASEAIRDPKNSSSP [SSN8]
- protein stability index (doa10∆): 2.61 ± 0.19
- protein stability index (pdr5∆): 3.18 ± 0.2
- protein stability index (san1∆): 2.46 ± 0.25
- protein stability index (ubr1∆): 3.13 ± 0.13

Sequence: FIVSGTASDQLFGMCES [PUP3]
- protein stability index (doa10∆): 2.41 ± 0.046
- protein stability index (pdr5∆): 2.46 ± 0.045
- protein stability index (san1∆): 2.63 ± 0.056
- protein stability index (ubr1∆): 2.53 ± 0.039

Sequence: LLLLSLFKKITNVNPSK [YML103C/NUP188]
- protein stability index (doa10∆): 1.89 ± 0.03
- protein stability index (pdr5∆): 1.9 ± 0.027
- protein stability index (san1∆): 2.24 ± 0.038
- protein stability index (ubr1∆): 1.93 ± 0.027

Sequence: IELLSDLINILEKKGFS [LIN1]
- protein stability index (doa10∆): 1.22 ± 0.075
- protein stability index (pdr5∆): 1.43 ± 0.082
- protein stability index (san1∆): 1.28 ± 0.17
- protein stability index (ubr1∆): 1.35 ± 0.062

Sequence: THPKDTFYITREKYNMK [ARP9]
- protein stability index (doa10∆): 2.98 ± 0.12
- protein stability index (pdr5∆): 3.09 ± 0.083
- protein stability index (san1∆): 3.07 ± 0.06
- protein stability index (ubr1∆): 3.31 ± 0.064

Sequence: SFRIKQKMAKAKKQNRP [RPL39]
- protein stability index (doa10∆): 2.47 ± 0.17
- protein stability index (pdr5∆): 2.78 ± 0.097
- protein stability index (san1∆): 2.93 ± 0.091
- protein stability index (ubr1∆): 2.93 ± 0.092

Sequence: DVSPLRRVNQAIALLTI [RPS5]
- protein stability index (doa10∆): 2.07 ± 0.065
- protein stability index (pdr5∆): 2.05 ± 0.077
- protein stability index (san1∆): 1.85 ± 0.15
- protein stability index (ubr1∆): 1.47 ± 0.055

Sequence: PAIPPVIDLEKIKFDES [BRR2]
- protein stability index (doa10∆): 2.85 ± 0.093
- protein stability index (pdr5∆): 2.84 ± 0.093
- protein stability index (san1∆): 2.67 ± 0.086
- protein stability index (ubr1∆): 2.77 ± 0.082

Sequence: LLTNSNNGSSNNNTQNT [SNF5]
- protein stability index (doa10∆): 2.99 ± 0.082
- protein stability index (pdr5∆): 3.25 ± 0.084
- protein stability index (san1∆): 3.17 ± 0.069
- protein stability index (ubr1∆): 3.18 ± 0.055

Sequence: IELNFDAVKDFKLGKFN [QCR2]
- protein stability index (doa10∆): 3.31 ± 0.26
- protein stability index (pdr5∆): 2.69 ± 0.17
- protein stability index (san1∆): 3.31 ± 0.093
- protein stability index (ubr1∆): 3.71 ± 0.25

Sequence: DTFGEGIIITDQSNVQY [BRR2]
- protein stability index (doa10∆): 3.11 ± 0.17
- protein stability index (pdr5∆): 3.21 ± 0.13
- protein stability index (san1∆): 2.79 ± 0.1
- protein stability index (ubr1∆): 2.94 ± 0.093

Sequence: RPDITMYCRPAPSDFSE [GRR1]
- protein stability index (doa10∆): 2.16 ± 0.12
- protein stability index (pdr5∆): 2.12 ± 0.15
- protein stability index (san1∆): 2.97 ± 0.067
- protein stability index (ubr1∆): 2.17 ± 0.076

Sequence: STLGDCLGIKDEEMLTS [GAL11]
- protein stability index (doa10∆): 3.17 ± 0.18
- protein stability index (pdr5∆): 3.11 ± 0.13
- protein stability index (san1∆): 2.81 ± 0.062
- protein stability index (ubr1∆): 3.04 ± 0.088

Sequence: LENKENGLLNEISRLKT [SMC2]
- protein stability index (doa10∆): 3.31 ± 0.18
- protein stability index (pdr5∆): 3.29 ± 0.079
- protein stability index (san1∆): 3.15 ± 0.094
- protein stability index (ubr1∆): 3.18 ± 0.13

Sequence: KMNNKPERFMVFQLPTR [RPC53]
- protein stability index (doa10∆): 2.38 ± 0.063
- protein stability index (pdr5∆): 2.75 ± 0.056
- protein stability index (san1∆): 2.65 ± 0.085
- protein stability index (ubr1∆): 2.83 ± 0.058

Sequence: VSLVVNFQISKKMDDYI [PRP28]
- protein stability index (doa10∆): 2.39 ± 0.066
- protein stability index (pdr5∆): 2.05 ± 0.07
- protein stability index (san1∆): 2.38 ± 0.1
- protein stability index (ubr1∆): 2.03 ± 0.05

Sequence: AHMANPLLRKVVDRESD [PRE4]
- protein stability index (san1∆): 1.13 ± 0.22

Sequence: NWYKSKKKAFTKYSAKY [RPL3]
- protein stability index (doa10∆): 3.23 ± 0.16
- protein stability index (pdr5∆): 3.25 ± 0.1
- protein stability index (san1∆): 3.07 ± 0.079
- protein stability index (ubr1∆): 3.01 ± 0.045
